From publication doi:10.1101/2025.04.26.650775, “Evolution of a fuzzy ribonucleoprotein complex in viral assembly” (bioRxiv, 2025) come the findings set out here.

As usually defined, the Kd is the free concentration of one partner at which half of the binding sites on the other are occupied at equilibrium, for simple one-to-one binding.

Data set [1] has as its target SARS-CoV-2 N-protein N:G215C (reduced), full-length (SARS-CoV-2) (UniProt P0DTC9). Kind of data set: mass photometry.
The target is the same in data set [2]. Put plainly: AUC.
Data set [3] concerns the target SARS-CoV-2 N-protein Nο (Omicron set N:P13L/Δ31–33/R203K/G204R), full-length (SARS-CoV-2) (UniProt P0DTC9). Kind of data set: mass photometry.
The target of data set [4] is SARS-CoV-2 N-protein N:R203K/G204R, full-length (SARS-CoV-2) (UniProt P0DTC9). Kind of data set: mass photometry.
The target in data set [5] is SARS-CoV-2 N-protein N:G215C* (oxidized), full-length (SARS-CoV-2) (UniProt P0DTC9). Kind of data set: mass photometry.
The data set “dynamic light scattering” concerns the molecule itself. Kind of data set: dynamic light scattering.

Regarding “SARS-CoV-2 N-protein N:G215C (reduced), full-length (from UniProt P0DTC9 1-419) (natural protein)”, the best-fit effective RNP life-time (with SL7 RNA) in data set [1] was 231 s. This molecule also gave a Kd in data set [2] of 1 µM. As for “SARS-CoV-2 N-protein Nο (Omicron set N:P13L/Δ31–33/R203K/G204R), full-length (from UniProt P0DTC9 1-419) (natural protein)”, in data set [3], the best-fit effective RNP life-time (with SL7 RNA) was determined as 58.5 s.

Regarding “SARS-CoV-2 N-protein N:R203K/G204R, full-length (from UniProt P0DTC9 1-419) (natural protein)”, the best-fit effective RNP life-time (with SL7 RNA) in data set [4] was found to be 54.6 s. Turning to “SARS-CoV-2 N-protein N:G215C* (oxidized), full-length (from UniProt P0DTC9 1-419) (natural protein)”, in data set [5], the best-fit effective RNP life-time (with SL7 RNA) turned out to be 41.8 s.

B1: LRS peptide N_(210–246):G214C (peptide)
peptide: MAGNCGDAALALLLLDRLNQLESKMSGKGQQQQGQTV
B1: in the data set “dynamic light scattering”, the binding result is “binds”.
